What was measured:
Assay in all cases: EC50 binding assay (ELISA screening, format not stated)
[1] = target: Mesothelin Isoform 1, as used in the EC50 binding assay (human) (UniProt Q13421)
[2] = target: Mesothelin Isoform 2 (IsoMSLN), as used in the EC50 binding assay (human) (UniProt Q13421)
[3] = target: T1, Mesothelin Isoform 2 (IsoMSLN), as used in the EC50 binding assay (human, UniProt Q13421 37-598)
T1 construct: also called MSLN Isoform 2; mesothelin isoform-2 polypeptide
T1 sequence (Q13421 37-606 limits assumed, form in doubt): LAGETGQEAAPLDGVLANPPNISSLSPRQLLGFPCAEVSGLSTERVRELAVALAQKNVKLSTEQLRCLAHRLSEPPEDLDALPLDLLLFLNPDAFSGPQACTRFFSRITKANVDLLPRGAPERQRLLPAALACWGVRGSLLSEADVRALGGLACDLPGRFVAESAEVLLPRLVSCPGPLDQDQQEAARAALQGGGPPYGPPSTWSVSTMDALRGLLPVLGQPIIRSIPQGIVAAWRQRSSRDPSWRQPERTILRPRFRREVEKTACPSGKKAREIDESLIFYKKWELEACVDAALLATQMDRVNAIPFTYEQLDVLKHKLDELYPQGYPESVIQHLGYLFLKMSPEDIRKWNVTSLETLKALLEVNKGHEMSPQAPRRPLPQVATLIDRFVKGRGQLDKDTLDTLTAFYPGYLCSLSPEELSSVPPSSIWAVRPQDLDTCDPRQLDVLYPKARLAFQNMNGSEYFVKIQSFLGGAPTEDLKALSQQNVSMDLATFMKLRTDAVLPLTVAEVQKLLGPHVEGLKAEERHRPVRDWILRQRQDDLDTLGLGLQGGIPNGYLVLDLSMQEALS

Mesothelin Isoform 1, as used in the EC50 binding assay (human), sequence (Q13421 other isoform, or with tags, fused parts or gaps limits assumed): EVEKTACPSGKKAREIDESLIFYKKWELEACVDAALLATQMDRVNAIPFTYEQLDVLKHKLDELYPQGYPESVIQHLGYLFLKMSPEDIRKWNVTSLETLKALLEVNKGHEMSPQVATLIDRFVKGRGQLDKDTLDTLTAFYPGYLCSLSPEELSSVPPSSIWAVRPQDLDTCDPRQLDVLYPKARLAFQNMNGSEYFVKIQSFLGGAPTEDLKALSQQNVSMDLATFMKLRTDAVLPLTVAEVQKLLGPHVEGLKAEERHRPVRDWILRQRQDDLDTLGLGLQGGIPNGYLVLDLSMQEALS
Mesothelin Isoform 2 (IsoMSLN), as used in the EC50 binding assay (human), sequence (Q13421 37-606 limits assumed, form in doubt): as the sequence (Q13421 37-606 limits assumed, form in doubt) above

Molecule | EC50 [1] | EC50 [2] | EC50 [3]
anti-MSLN antibody clone K1 (commercially available) | 0.15 µg/mL | 0.11 µg/mL | –
anti-IsoMSLN monoclonal antibody clone 1B6 (antibody, V domains shown, also called IB6) VH: EVKLVESGGGLVKPGGSLKLSCEASGFTFSRYAMSWVRHTPEKRLAWVASITFGGDPYYPDGLKGRFTISRDNTRNILYLQMNSLRSEDTAMYYCVRHESWFAYWGQGTLVTVSA VL: DVLMTQTPLSLPVSLGEQVSISCRSSQTIVHTDGNIYLEWYLQNPGQSPRLLIYKISNRFSGVPDRFSGSGSGTDFTLKISRVEAEDLGIYYCFQASHVPYTFGGGTKLEIK | – | – | 0.073 µg/mL

Reference: patent publication US20240279353A1 (KIROMIC BIOPHARMA, published 2024)
